Results taken from US6979673 (University of Pennsylvania, dated 2005).

T1: PRL (human prolactin, untagged or form not specified: serum PRL; PRL added to cell cultures) (human, UniProt P01236 29-227)
T1 sequence (looked up): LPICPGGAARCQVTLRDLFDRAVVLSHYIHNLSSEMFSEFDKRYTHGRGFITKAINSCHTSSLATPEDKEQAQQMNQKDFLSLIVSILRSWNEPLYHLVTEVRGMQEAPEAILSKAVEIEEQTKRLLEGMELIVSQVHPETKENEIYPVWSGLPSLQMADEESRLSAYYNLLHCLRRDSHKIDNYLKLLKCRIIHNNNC

B1: His-tagged CypB (cyclophilin B, recombinant, V5/His-tagged, from Drosophila S2 cells) (enzyme)
chain: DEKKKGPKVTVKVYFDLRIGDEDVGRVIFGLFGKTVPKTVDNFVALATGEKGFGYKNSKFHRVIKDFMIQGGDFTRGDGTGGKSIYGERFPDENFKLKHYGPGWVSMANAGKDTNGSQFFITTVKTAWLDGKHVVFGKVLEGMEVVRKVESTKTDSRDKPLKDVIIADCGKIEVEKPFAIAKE
notes: also called wild-type CypB; sepharose-conjugated, recombinant CypB; not shown: C-terminal bifunctional V5/His-tag of vector pAc5/V5-HisA
B2: myc-tagged PRL (recombinant human prolactin from Drosophila S2 cells) (ligand, UniProt P01236 29-227, looked up, not shown: small tags and cut ends)
chain: T1 sequence (looked up)
notes: mature

How the values were obtained:
[1] = target: T1, PRL (human prolactin, untagged or form …); test: cell-based or functional assay
growth hormone (GH) = growth hormone (GH) (human, UniProt P01241 27-217); test: cell-based or functional assay
[2] = target: B2; test: co-immunoprecipitation of admixed purified proteins, with cyclosporin A against without
Procedure: Immunoblots were blocked for one hour at room temperature with 5% milk in PBS containing 1% TWEEN-20 (PBST) and immunoblotted with a monoclonal anti-myc antibody (1:1000, mAb 9E10) for one hour. Immunoblots were analyzed by incubation with an anti-mouse secondary antibody conjugated to horseradish peroxidase (1:2000, Boehringer Mannheim) for one hour followed by incubation with ECL Plus (Amersham Pharmacia Biotech) amnd exposure to Biomax film (Kodak).

[3] = target: recombinant form of cyclophilin family member CypA (UniProt P62937 1-165, limits assumed); test: co-immunoprecipitation of admixed recombinant proteins
recombinant form of cyclophilin family member CypA, sequence (P62937 whole entry): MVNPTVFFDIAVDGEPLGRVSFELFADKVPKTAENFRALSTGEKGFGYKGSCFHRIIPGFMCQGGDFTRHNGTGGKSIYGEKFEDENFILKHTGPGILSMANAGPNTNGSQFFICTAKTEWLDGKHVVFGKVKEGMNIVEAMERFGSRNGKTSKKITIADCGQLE

growth hormone (GH), sequence (P01241 27-217 limits assumed): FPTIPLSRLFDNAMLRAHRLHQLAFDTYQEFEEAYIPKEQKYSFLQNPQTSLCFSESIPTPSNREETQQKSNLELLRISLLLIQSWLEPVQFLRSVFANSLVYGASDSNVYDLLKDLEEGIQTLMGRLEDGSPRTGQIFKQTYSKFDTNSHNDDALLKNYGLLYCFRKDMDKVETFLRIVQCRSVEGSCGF

PRL-driven growth of Nb2 cells (3H-thymidine) [1] [fold] | GH-driven proliferation (growth hormone (GH)) [fold] | fold enhancement of the interaction on addition of CsA [2] [fold] | binding result [3] | Binder
≤ 8 | 40 | ~10 | – | B1
– | – | – | no binding | B2
